For assay [1], the target named is T1, full-length 30 amino acid CALR mutant neoepitope peptide (peptide used for immunisation) (human).
T1 construct: also called full-length peptide
T1 peptide: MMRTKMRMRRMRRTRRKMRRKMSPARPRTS
As to the kind of experiment: Scatchard analysis, 125I-labelled and unlabelled 4D7 on plate-bound full-length peptide; middle plot of three replicates, R2= 0.9926. Here is the method:
(§1) A. Western blot screening of various mutant CALR antibody clones produced from hybridomas in TF-1 TpoR and TF-1 TpoR CALR^del61. Varying levels of intensity can be observed, compared to commercial Dianova monoclonal mutant CALR antibody. 4D7 is able to detect mutant CALR protein in CALR^del61 cells but not in CALR wild type TF-1 cells. B. Replicate Scatchard analyses of 4D7 using I¹²⁵-labelled and unlabelled 4D7 bound to full-length peptide (n=3). C. […] Cells were cultured in the presence or absence of 10 ng/ml TPO (n=3). D. Paracrine CALR-mutant protein is not sufficient to maintain TPO sensitive cells in culture. TF1 TpoR and TF-1 TpoR CALR^del61 cells were seeded at the same density and cultured in the presence or absence of TPO. […] Cell populations on either side of the membrane were counted every 24 hours over 4 days in triplicate and representative images were taken on day 4. […] E. Histogram overlays showing fluorescence intensity of unstained and PE conjugated IgG2a isotype control in TF-1, TF-1 TpoR and TF-1 TpoR CALR^del61 compared to 4D7 conjugated to PE.
(§2) 4D7 was radio-iodinated with ¹²⁵I (Perkin-Elmer) using Pierce Pre-Coated Iodination tubes (Thermo Scientific) with an estimated specific activity of 7733cpm/ng. […] 200 μL aliquots from each well were counted on a PerkinElmer 2470 Wizard2 Automatic Gamma Counter. Dissociation constants were calculated using the EBDA and LIGAND programs.

In assay [2] the target is T1, full-length 30 amino acid CALR mutant …. As to the kind of experiment: Scatchard analysis, 125I-labelled and unlabelled 4D7 on plate-bound full-length peptide; left plot of three replicates, R2= 0.9794. Here is the method: as §1, §2
Assay [3] has the same target. As to the kind of experiment: 125I-Scatchard analysis, saturation binding of 125I-4D7 to plate-coated peptide. Here is the method: 4D7 was radio-iodinated with ¹²⁵I (Perkin-Elmer) using Pierce Pre-Coated Iodination tubes (Thermo Scientific) with an estimated specific activity of 7733cpm/ng. For saturation binding assays, plates were coated overnight at 4° C. with full-length neoepitope CALR peptide (2 μg/mL) or control scrambled peptide (2 μg/mL). Wells were washed 3 times with phosphate buffered saline+0.05% Tween20, blocked with 5% bovine serum albumin for 1 hour followed by further washing. ¹²⁵I-4D7 was added at concentrations ranging from 2 pM to 2.5 nM in triplicate and incubated at room temperature for 2 hours. After washing, 1M HCl was added for 30 minutes to elute bound antibody. 200 μL aliquots from each well were counted on a PerkinElmer 2470 Wizard2 Automatic Gamma Counter. Dissociation constants were calculated using the EBDA and LIGAND programs.

The target is the same in assay [4]. As to the kind of experiment: Scatchard analysis, 125I-labelled and unlabelled 4D7 on plate-bound full-length peptide; right plot of three replicates, R2= 0.994. Here is the method:
as §1, §2

Assay [5] addresses T2, wild type calreticulin (CALR) (human, UniProt P27797 18-417).
T2 construct: also called CALR^WT; endogenous wild type CALR
T2 sequence (looked up): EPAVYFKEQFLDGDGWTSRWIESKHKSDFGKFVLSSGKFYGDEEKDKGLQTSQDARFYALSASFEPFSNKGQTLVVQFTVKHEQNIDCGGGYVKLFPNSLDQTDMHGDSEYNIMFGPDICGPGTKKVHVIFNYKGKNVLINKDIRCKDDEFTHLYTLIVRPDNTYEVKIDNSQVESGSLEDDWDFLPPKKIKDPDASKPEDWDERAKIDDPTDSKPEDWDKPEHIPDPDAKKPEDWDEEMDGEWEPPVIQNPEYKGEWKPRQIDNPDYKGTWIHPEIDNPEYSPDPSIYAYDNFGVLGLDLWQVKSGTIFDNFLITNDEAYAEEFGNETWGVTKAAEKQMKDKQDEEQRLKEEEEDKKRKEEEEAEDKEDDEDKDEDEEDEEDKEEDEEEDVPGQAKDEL
As to the kind of experiment: Western blot of TF-1 cell extracts (hybridoma clone screen). Here is the method: B. Replicate Scatchard analyses of 4D7 using I¹²⁵-labelled and unlabelled 4D7 bound to full-length peptide (n=3). C. […] Cells were cultured in the presence or absence of 10 ng/ml TPO (n=3). D. Paracrine CALR-mutant protein is not sufficient to maintain TPO sensitive cells in culture. TF1 TpoR and TF-1 TpoR CALR^del61 cells were seeded at the same density and cultured in the presence or absence of TPO. Cells were separated by semi-permeable membrane in a horizontal co-culture system. Cell populations on either side of the membrane were counted every 24 hours over 4 days in triplicate and representative images were taken on day 4. Exogenous CALR secreted by TF-1 TpoR CALR^del61 was unable to assist growth of factor dependent TF-1 TopR cells (n=3). E. Histogram overlays showing fluorescence intensity of unstained and PE conjugated IgG2a isotype control in TF-1, TF-1 TpoR and TF-1 TpoR CALR^del61 compared to 4D7 conjugated to PE.
For immunoblotting of total lysates, cells were lysed in NP40 buffer containing 150 mM NaCl, 50 mM Tris pH 7.6, 1% NP-40, supplemented with protease inhibitors (Complete, Roche) and phosphatase inhibitor cocktails, and boiled for 5 minutes after addition of sample buffer (60 mM Tris pH 6.8, 5% glycerol, 1% SDS, 2% β-mercaptoethanol, 0.02% bromophenol blue) before SDS gel electrophoresis followed by Western blotting (Tvorogov et al, 2010). […]
Background: In western blotting, separated proteins are transferred to a membrane and probed.

Assay [6] has as its target T3, thrombopoietin receptor (TpoR) (UniProt P40238 26-635, limits assumed).
T3 construct: whole, on cells; It was immunoprecipitated with anti-FLAG beads, so the expressed TpoR evidently carries a FLAG tag; The construct and the position of the tag are not described; also called TPO receptor
T3 sequence (looked up): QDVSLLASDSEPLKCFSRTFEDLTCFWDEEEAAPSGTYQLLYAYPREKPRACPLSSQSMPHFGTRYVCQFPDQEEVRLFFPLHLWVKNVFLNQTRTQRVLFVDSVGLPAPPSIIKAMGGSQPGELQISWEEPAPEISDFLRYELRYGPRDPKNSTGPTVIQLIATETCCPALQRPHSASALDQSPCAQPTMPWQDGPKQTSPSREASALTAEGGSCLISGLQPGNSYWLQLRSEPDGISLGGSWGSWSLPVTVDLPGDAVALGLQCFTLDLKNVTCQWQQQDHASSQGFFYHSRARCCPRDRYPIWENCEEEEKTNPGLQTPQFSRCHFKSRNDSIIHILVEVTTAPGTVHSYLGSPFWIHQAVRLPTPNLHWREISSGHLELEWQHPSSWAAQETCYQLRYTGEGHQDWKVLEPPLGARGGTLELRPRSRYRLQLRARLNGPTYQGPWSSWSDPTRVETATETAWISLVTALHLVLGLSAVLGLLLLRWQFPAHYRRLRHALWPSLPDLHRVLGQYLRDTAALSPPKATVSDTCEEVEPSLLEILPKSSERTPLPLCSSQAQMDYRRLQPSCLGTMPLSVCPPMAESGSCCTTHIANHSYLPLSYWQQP
The experiment in a line: flow cytometry on TF-1 TpoR cells (TpoR with endogenous wild type CALR). Background: In flow cytometry, cells or beads pass a laser one at a time.

Assay [7] addresses T1, full-length 30 amino acid CALR mutant …. The experiment in a line: ELISA on peptide. For orientation: ELISA stands for enzyme-linked immunosorbent assay.
Assay [8] has as its system TF-1 TpoR CALR^del61 cells. As to the kind of experiment: Cell proliferation, trypan blue exclusion. Type of assay: cell-based, human. The conditions noted are these: 5 or 20 μg/mL; FIG. 8. Here is the method:
[…] Cells were seeded in triplicate and each well was counted in triplicate every 24 hours for 5 days using trypan blue exclusion.

In a further assay the test system is mutant CALR protein. As to the kind of experiment: Western blot detection of mutant CALR by hybridoma clones. It is filed as binding, human. The settings on record: cell extracts from TF-1 cells transduced with and without mutant CALR; data not shown. Here is the method: (§3) Rats were immunised with a CALR mutant peptide “MMRTKMRMRRMRRT RRKMRRKMSPARPRTS” coupled to KLH, this peptide sequence is unique to CALR mutant. Serum from the immunised rats was screened by enzyme linked immunoassay, to verify a strong titre to the peptide immunogen, prior to performing the hybridoma fusion. Immunised rat spleen cells were harvested and a spleen single cell suspension was combined with Sp2/O myeloma cell line. The cell mixture was treated with polyethylene glycol plus DMEM prior to been plated in 96 well flat bottom plates. The expanding hybridomas were screened initially by ELISA and the positive clones were further verified by western blot, for reactivity to the expressed CALR mutant protein before subcloning the hybridomas for antibody production.
For immunoblotting of total lysates, cells were lysed in NP40 buffer containing 150 mM NaCl, 50 mM Tris pH 7.6, 1% NP-40, supplemented with protease inhibitors (Complete, Roche) and phosphatase inhibitor cocktails, and boiled for 5 minutes after addition of sample buffer (60 mM Tris pH 6.8, 5% glycerol, 1% SDS, 2% β-mercaptoethanol, 0.02% bromophenol blue) before SDS gel electrophoresis followed by Western blotting (Tvorogov et al, 2010). Primary antibodies against pERK (#9101), pSTAT5 (#9359), ERK (#4695), Actin (#4970), Caspase 3 (#14220), wildtype CALR (#12238) were purchased from Cell Signalling. Primary antibodies against pSTATI (#612233), pSTAT3 (#612357), STATI (#610186), STAT3 (#610190), STAT5 (#610192) and Anti-phosphotyrosine 4G10 (#610012) were purchased from BD Biosciences. Mutant CALR monoclonal antibody CAL2 was purchased from Dianova (Hamburg, Germany). Immunopreciptation of TpoR was performed in standard NP40 lysis buffer with additional 50 mM iodoacetamide to avoid any de novo disulfide bond formation post lysis. To reduce IgG background during immunoprecipitation anti-FLAG conjugated to magnetic beads (Sigma, #M8823) were used. For this same reason, anti-FLAG-HRP conjugated antibodies (Sigma, #A8592) were used in western blotting.

For assay [9], the target named is T2, wild type calreticulin (CALR). As to the kind of experiment: Western blot of cell extracts.
Assay [10] relates to 30 amino acid peptide corresponding to the C-terminal mutant CALR neoepitope sequence. The experiment in a line: ELISA binding to peptide. Details: species or system human. Here is the method: as §3

B1: 4D7 rat monoclonal IgG2a anti-mutant calreticulin antibody (antibody, V domains shown)
VH: QVQLQQSGAELAKPGSSVKISCKASGYTFTNYDMSWIKQRPGQALEWIGAINPGNGVTDYNEKFRGKATLTVDKSSSTAFMQLSSLTPEDTAVYHCAREYRDNYGYFDYWGQGVMVTVSS
VL: DIVLTQTPVSLSVTLGDQASISCRSSQSLEYSDGYTYLDWFLQKPGQSPQLLIYEVSSRFSGVPDRFIGRGSGTDFTLKISRVEPEDLGVYYCFQATHDPFTFGSGTKLEIK
notes: also called clone 4D7; clone 4D7 mAb
As to B1, the Kd (in general, the concentration at which binding is half-saturated) in [1] is 1.43 nM; in assay [2], 1.91 nM; in assay [3], 1.53 nM; in assay [4] it was 1.25 nM. In addition, the binding result is “no binding” in assay [5] and “no binding (tested: 4 µg/mL (FIG. 1D legend))” in assay [6].

B2: 9H11 rat monoclonal anti-mutant calreticulin antibody (antibody, V domains shown)
VH: QVQLQQSGAELTKPGSSVKISCKASGYTFTTYDISWIKQRPGQALEWIGAIYPGGETTGYNEKFKDKATLTVDKSSNTAFMQLSSLTPEDTAVYYCARWGHTTGTRFDHWGQGVMVTVSS
VL: DIVLTQTPVSLSVSLGDQASISCRSSQSLEYSDGYTYLEWYVQKPGQSPQLLIWEVSDRFSGVPDRFIGSGSGTDFTLKISRVEPEDLGVYYCFQATHDPPTFGGGTKLELK
notes: also called rat anti-human mutCALR 9H11
On to B2, for which the binding result in assay [7] is “binds”; in assay [9] it was “no binding”. Further, in assay [8], the “proliferation of cytokine-independent TF1 TpoR/mutCALR cells” value is “inhibit proliferation”. In addition, in the assay with mutant CALR protein, the “detecting mutant but not wild type CALR protein by Western blotting” value was “superior activity”. Further, the “binding to peptide by ELISA” value in assay [10] is listed as “positive binding”.

Source of the values: patent US20250236667A1, “ANTIBODIES TO MUTANT CALRETICULIN AND USES THEREOF” (CENTRAL ADELAIDE LOCAL HEALTH NETWORK INC, priority 2021, published 2025).
